Changes are numbered by the printed parent chain.
B1: 1H10 (hybridoma clone supernatant) (antibody, V domains shown)
VH: QVQLVESGGGVVQPGRSLRLSCVASGFTFSSYGMHWVRQAPGKGLEWVTFIWYDGSNKNYADSVKGRFTISRDNSKNTLNLQMNSLRVEDTAVYYCARDRYSSGWDVFDYWGQGTLVTVSS
VL: DIQMTQSPSSVSASVGDRVTITCRASQDISSWLAWYQQQPGKAPKLQIYAASSLQSGVPSRFSGSGSGTDFTLTISSLQPEDFATYYCQQAKSFPPTFGQGTKVEIK
notes: Hybridoma supernatant from mice encoding human heavy and kappa variable regions
B2: 10E11 (hybridoma clone supernatant) (antibody, V domains shown)
VH: EVQLVQSGTEVKKPGESLKISCKDSGYRFSSYWIGWVRQMPGKGLEWMGIIYPGDSDTRYSPSFQGQVTISADKSISTAYLQWRSLKASDTAMYYCARRGWVNYFDYWGQGTLVTVSS
VL: B1 VL with D28G, S31N, A34G, Q39K, Q47L, K92N, P96L, Q100G
notes: Hybridoma supernatant
B3: 13C7 (hybridoma clone supernatant) (antibody, V domains shown)
VH: QITLKESGPTLVKPTQTLTLTCTFSGFSLSTSGVGVGWIRQPPGKALEWLALIYWNDDKRYRPSLKNRLTITKDTSKNQVVLTMTNMDPVDTATYYCTHYGVTAPFYNWFDPWGQGTLVTVSS
VL: DIQMTQSPSSLSASVGDRVTITCRASQSITSYLNWYQQKPGKAPKLLIYAASSLQSGVPSRFSGSGSGTDFTLTISSLQPEDFATYYCQRSYSTLTFGGGTKVEIK
notes: Hybridoma supernatant
B4: 14B12 (hybridoma clone supernatant) (antibody, V domains shown)
VH: QVQLQESGPGLVKPSETLSLTCTVSGGSINTYYRSWIRQPPGKGLEWIGYIYYSGNTNYNPSLKSRVTISADTSKNQFSLNLISVTAADTAMYYCARAQYGEEAFDIWGQGTLVTVSS
VL: DIQMTQSPSSLSASVGDRVTITCRASQSITTYLNWYQQKPGKAPQLLIFAASRLQTGVPSRFSGSGSGTDFTLTISSLLPGDFATYYCQQSYNTPPTFGGGTKVEIK
notes: Hybridoma supernatant
B5: 15A4 (hybridoma clone supernatant) (antibody, V domains shown)
VH: B1 VH with V23A, T28N, T49A, I51V, K58Q, K76N, N80Y, V88A
VL: B1 VL with D28G, Q39K, Q47L, Y49F, D70G
notes: Hybridoma supernatant
B6: 17F3 (hybridoma clone supernatant) (antibody, V domains shown)
VH: EVQLVESGGGLVKSGGSLRLSCAASGFTFSSYSLKWVRQAPGKGLEWVSSISSSSGYIYYADSVKGRFTISRDNAKNSLYLQMNSLRAEDTAMYYCARAVSTIAARPGYYYYYMDVWGKGTLVTVSS
VL: DIQMTQSPSSVSASIGDRVTITCRASQDISTWFAWYQQKPGKAPKLLIYAASTLRSGVPSRFSGSGSGTDFTLTINSLQPEDFATYYCQQANSFPLTFGGGTKVEIK
notes: Hybridoma supernatant
B7: 19C7 (hybridoma clone supernatant) (antibody, V domains shown)
VH: B3 VH with F27I, S32G, A51S, R62S, N67S, T75S, T98A, Y100S, V102L, T103A
VL: B3 VL with T30S, S31N, Q38L, K42N, Y49F, Y87F
notes: Hybridoma supernatant
B8: 2F9 (hybridoma clone supernatant) (antibody, V domains shown)
VH: EVQLVESGGGVVRPGGSLRLSCAASGFTFDDYGMSWVRQAPGKGLEWVSGLSWNGGNTYYADSVKGRFTISRDNAKNSLYLQMNSLRAEDTALYYCARGSRYNWNYDAFDIWGQGTLVTVSS
VL: DIQMTQSPSSLSASIGDRVTITCRASQGIRNALGWYQQKPGKAPKRLIYAASNLQSGVPSRFSGSGSGTEFTLTISSLQPEDFATYYCLQHNSYPFTFGPGTKVEIK
notes: Hybridoma supernatant
B9: 9E2 (hybridoma clone supernatant) (antibody, V domains shown)
VH: B8 VH with D31N, L51I, S52N, N57S, K65R, N105S
VL: B8 VL with I15V, I29V, N53S
notes: Hybridoma supernatant
B10: 4F9 (hybridoma clone supernatant) (antibody, V domains shown)
VH: QVQLQESGPGLVKPSGTLSLTCAVSGGSISSSNWWSWVRQPPGKGLEWIGEIYHSGSTSYNPSLKSRVTISVDKSKNQFSLKLSSVTAADTAVYYCARNDWGFPLDCWGQGTLVTVSS
VL: DIQMTQSPSSLSASVGDRVTITCRASQSISSYLNWYQQKPGKAPKLLIYAASSLQSGVPSRFSGSGSGTHFTLTISSLQPEDFATYYCQQSHNIPITFGQGTRLEIK
notes: Hybridoma supernatant
B11: 1H10 anti-CDH17 recombinant antibody (human IgG1) (antibody, V domains shown)
VH: B1 VH
VL: DIQMTQSPSSVSASVGDRVTITCRASQDISSWLAWYQQQPGKAPKLQIYAASSLQSGVPSRFSGSGSGTDFTLTISSLQPEDFATYYCQQAKSFPPTFGQGTKVEIKR
B12: 2F9 anti-CDH17 recombinant antibody (human IgG1) (antibody, V domains shown)
VH: B8 VH
VL: DIQMTQSPSSLSASIGDRVTITCRASQGIRNALGWYQQKPGKAPKRLIYAASNLQSGVPSRFSGSGSGTEFTLTISSLQPEDFATYYCLQHNSYPFTFGPGTKVEIKR
B13: 9E2 anti-CDH17 recombinant antibody (human IgG1) (antibody, V domains shown)
VH: B8 VH with D31N, L51I, S52N, N57S, K65R, N105S
VL: B12 VL with I15V, I29V, N53S
B14: 13C7 anti-CDH17 recombinant antibody (human IgG1) (antibody, V domains shown)
VH: B3 VH
VL: DIQMTQSPSSLSASVGDRVTITCRASQSITSYLNWYQQKPGKAPKLLIYAASSLQSGVPSRFSGSGSGTDFTLTISSLQPEDFATYYCQRSYSTLTFGGGTKVEIKR
B15: 17F3 anti-CDH17 recombinant antibody (human IgG1) (antibody, V domains shown)
VH: B6 VH
VL: DIQMTQSPSSVSASIGDRVTITCRASQDISTWFAWYQQKPGKAPKLLIYAASTLRSGVPSRFSGSGSGTDFTLTINSLQPEDFATYYCQQANSFPLTFGGGTKVEIKR
B16: 19C7 anti-CDH17 recombinant antibody (human IgG1) (antibody, V domains shown)
VH: B3 VH with F27I, S32G, A51S, R62S, N67S, T75S, T98A, Y100S, V102L, T103A
VL: B14 VL with T30S, S31N, Q38L, K42N, Y49F, Y87F

Target: T1, BSA (UniProt P02769 25-607)
T1 construct: Control coating protein of the ELISA
Experiment: ELISA, plate coated with BSA, hybridoma supernatant
Procedure: (§1) ELISA was performed using the DuoSet ELISA Ancillary Kit (R&D System, DY008). ELISA plates were coated with 1 μg/ml of human CDH17 His Tag (Sino biological, catalog number 11360-H08H), or BSA overnight. Excess unbound proteins were washed off by washing the plates three times with the wash buffer before blocking for 1 hour at room temperature. 100 μl CDH17 hybridoma supernatant was added in each well and incubated for 1 hour at room temperature. Excess unbound antibodies were washed off and 100 μl of 1:30000 diluted secondary antibody Goat anti-mouse IgG Fc-HRP (ab5870) was added to each well for another 1 hour. Plates were washed before the addition 50 μL of […] (color A and color B) according to manufacturer's protocol. The reactions were stopped using 25 μL of stop solution. Optical density at 450 nm of samples was measured by a microplate reader (PerkinElmer).

T1 sequence (P02769 25-607 limits assumed): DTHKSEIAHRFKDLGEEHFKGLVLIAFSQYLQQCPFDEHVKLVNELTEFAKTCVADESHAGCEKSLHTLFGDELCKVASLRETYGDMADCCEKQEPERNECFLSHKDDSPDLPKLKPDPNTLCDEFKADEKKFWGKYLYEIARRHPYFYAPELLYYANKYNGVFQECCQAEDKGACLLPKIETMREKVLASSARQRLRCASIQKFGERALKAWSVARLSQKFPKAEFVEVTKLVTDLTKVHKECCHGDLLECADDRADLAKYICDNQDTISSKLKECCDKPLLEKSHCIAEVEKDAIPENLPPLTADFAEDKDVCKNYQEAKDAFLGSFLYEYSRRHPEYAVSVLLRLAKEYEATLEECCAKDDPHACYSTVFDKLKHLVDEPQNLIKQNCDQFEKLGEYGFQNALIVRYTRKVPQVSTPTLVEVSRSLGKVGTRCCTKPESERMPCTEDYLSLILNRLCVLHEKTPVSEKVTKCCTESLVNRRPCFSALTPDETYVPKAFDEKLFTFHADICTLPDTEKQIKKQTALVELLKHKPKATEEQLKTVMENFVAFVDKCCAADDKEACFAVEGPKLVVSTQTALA

Compared with B1, B2 is higher in OD450: 0.0399 OD450 for the first, 0.0475 OD450 for the second.

Compared with B3, B4 is lower in OD450: 0.0432 OD450 for the first, 0.041 OD450 for the second.

Going from B5 to B6, the OD450 falls from 0.0431 OD450 to 0.0425 OD450.

Compared with B7, B8 is higher in OD450: 0.0468 OD450 for the first, 0.0718 OD450 for the second.

First: B9
Second: B10
The OD450 of the first is lower: 0.0429 OD450 for the first, 0.051 OD450 for the second.

Target: T2, human CDH17 His Tag (Sino biological, catalog number 11360-H08H) (human, UniProt Q12864 23-787)
T2 construct: Bought recombinant protein; also called hCDH17; human CDH17 protein; not shown: His tag
Experiment: ELISA, plate coated with 1 µg/ml human CDH17 His Tag, hybridoma supernatant
Procedure: as §1

First: B1
Second: B2
The OD450 of the first is higher: 1.79 OD450 for the first, 1.48 OD450 for the second.

Compared with B3, B4 is higher in OD450: 1.62 OD450 for the first, 1.88 OD450 for the second.

Compared with B5, B6 is higher in OD450: 1.6 OD450 for the first, 1.66 OD450 for the second.

Going from B7 to B8, the OD450 falls from 1.84 OD450 to 1.72 OD450.

Compared with B9, B10 is higher in OD450: 1.48 OD450 for the first, 1.52 OD450 for the second.

Target: T3, human CDH17 as originally expressed in cells (cell surface CDH17 on AsPC1, GP2d and other cancer cell lines) (human, UniProt Q12864 23-832)
Experiment: cell-based or functional assay

B11 and B12 are within 1.5-fold of each other in “IC50 of indirect killing assay to evaluate the internalization in AsPC1 cells” value (from here on “IC50 of indirect killing assay”): 0.19 nM for the first, 0.14 nM for the second.

Compared with B13, B14 is 1.7-fold lower in “IC50 of indirect killing assay” value: 0.15 nM for the first, 0.09 nM for the second.

B15 and B16 are within 1.5-fold of each other in “IC50 of indirect killing assay” value: 0.08 nM for the first, 0.09 nM for the second.

Target: T3, human CDH17 as originally expressed in …
Experiment: flow cytometry titration on CDH17 positive AsPC1 cells
Procedure: To determine the binding of recombinant antibody to cell surface CDH17 receptors, cells were first harvested and resuspended in cell staining buffer (BioLegend, Cat #420201) at 1.3-1.5×10⁶ cells/mL. Then, the cells were treated with human Fc receptor blocking reagent (BioLegend, Cat #422302) on the ice for 10 min. The resulting cell suspension was aliquoted into 50 μL aliquots. […] The cells were incubated on the ice for 1 hour and then washed with cell staining buffer twice. 50 μL of secondary antibody (PE conjugated goat anti-human Fc, eBioscience™, 1:250 dilution) was added to each sample to resuspend the cells. The cells were incubated on the ice for another 20 min. Cells were subsequently washed twice with cell staining buffer and resuspended in 4% PFA to fix the cells. The samples were analyzed using iQue3 to measure the median fluorescence intensity using corresponding channels.

Compared with B11, B12 is 1.8-fold lower in Kd: 0.31 nM for the first, 0.17 nM for the second. The second binds more tightly here.

B13 and B14 are within 1.5-fold of each other in Kd: 0.31 nM for the first, 0.28 nM for the second.

Going from B15 to B16, the Kd falls from 0.74 nM to 0.13 nM (5.7-fold). The second binds more tightly here.

Target: T1, BSA
Experiment: ELISA, plate coated with 1 µg/ml BSA, hybridoma supernatant
Procedure: as §1

B1: no binding.
B2: no binding.
B3: no binding.
B4: no binding.
B5: no binding.
B6: no binding.
B7: no binding.
B8: no binding.
B9: no binding.
B10: no binding.

Source: US20260232828A1, “LIGAND-CYTOTOXICITY DRUG CONJUGATES AND PHARMACEUTICAL USES THEREOF” (HANSOH BIO LLC, priority 2023, published 2026)
